Test results from patent US20230012273A1 (Boehringer Ingelheim, published 2023).
Positions count from the first letter of the chain named.

B1: Antibody A13 (antibody, human IgG1, kappa, L234A L235A, V domains shown)
VH: EVQLVESGGGLVQPGGSLRLSCAASGFTLSSYDMHWVRQAPGKGLEWVSAIGTAGDTYYTGSVKGRFTISRENAKNSLYLQMNSLRAADTAVYYCVRGGVWDDAFDIWGQGTMVTVSS
VL: DIQMTQSPSSLSASVGDRVTITCRASQDINNYLAWFQQKPGKAPKSLIYTASSLHSGVPSKFSGSGSGTDFTLTISSLQPEDFATYYCQQYVSYPYTFGQGTKLEIKR
B2: Antibody A14 (antibody, human IgG1, kappa, L234A L235A, V domains shown)
VH: B1 VH with A88S
VL: B1 VL
B3: Antibody A15 (antibody, human IgG1, kappa, L234A L235A, V domains shown)
VH: B1 VH with A88E
VL: B1 VL
B4: Antibody A16 (antibody, human IgG1, kappa, L234A L235A, V domains shown)
VH: B1 VH with A88G
VL: B1 VL
B5: Antibody A5 (antibody, human IgG1, kappa, L234A L235A, V domains shown)
VH: B1 VH with A88S
VL: B1 VL with D28G, L33A

Key:
Assay in all cases: SPR, Ab captured, ECD-His analyte
[1] = molecular target: T1, human SIRPβ1 extracellular domain + His-tag (NP_006056.2) (human, UniProt O00241 30-371)
T1 construct: also called hSIRPβ1; HuSIRPβ1
T1 sequence (O00241 other isoform, or with tags, fused parts or gaps): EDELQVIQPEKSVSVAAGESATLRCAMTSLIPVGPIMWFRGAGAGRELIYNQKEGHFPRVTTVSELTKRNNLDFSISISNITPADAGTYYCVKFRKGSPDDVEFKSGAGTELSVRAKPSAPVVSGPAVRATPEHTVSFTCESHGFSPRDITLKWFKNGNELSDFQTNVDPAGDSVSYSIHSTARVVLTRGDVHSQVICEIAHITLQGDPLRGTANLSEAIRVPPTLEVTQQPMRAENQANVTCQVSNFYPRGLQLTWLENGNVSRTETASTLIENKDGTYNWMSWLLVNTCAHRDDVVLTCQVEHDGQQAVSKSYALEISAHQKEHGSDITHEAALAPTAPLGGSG
Protocol: (§1) The binding affinity of anti-SIRPα antibodies to the various SIRPα analytes is determined by surface plasmon resonance (SPR) using a ProteOn XPR36 (Bio-Rad). The running buffer for this experiment and all dilutions (except where stated) are done in 1×HBS-EP+. […] The sensorchip is deactivated with 1M ethanolamine HCl for 420 sec at a flowrate of 10 μl/min.
(§2) The analyte is injected over the captured antibody for 300 sec at a flowrate of 30 μl/min. The dissociation is done for 600 sec. Two-fold serial dilutions of each SIRP protein (Extracellular Domain+His-Tag) are injected as analyte with the highest concentrations indicated in table 36 below.

[2] = molecular target: T2, human SIRPγ extracellular domain + His-tag (NP_061026.2) (human, UniProt Q9P1W8 29-360)
T2 construct: also called hSIRPγ; HuSIRPγ
T2 sequence (Q9P1W8 29-360): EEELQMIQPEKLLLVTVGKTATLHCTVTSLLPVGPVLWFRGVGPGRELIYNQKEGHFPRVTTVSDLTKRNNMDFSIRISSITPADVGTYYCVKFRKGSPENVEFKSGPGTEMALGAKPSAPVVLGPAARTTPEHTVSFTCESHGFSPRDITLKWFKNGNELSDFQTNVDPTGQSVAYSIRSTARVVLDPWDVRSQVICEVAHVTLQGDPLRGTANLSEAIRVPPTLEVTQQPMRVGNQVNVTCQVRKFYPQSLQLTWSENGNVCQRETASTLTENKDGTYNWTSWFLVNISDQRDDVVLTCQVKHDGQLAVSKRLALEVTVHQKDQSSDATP
Protocol: as §1, §2

[3] = molecular target: T3, human SIRPβL/SIRPβ1v3 extracellular domain + His-tag (NP_001129316.1) (human, UniProt Q5TFQ8 30-371)
T3 construct: also called hSIRPβ1v3; HuSIRPβ1v3
T3 sequence (Q5TFQ8 other isoform, or with tags, fused parts or gaps): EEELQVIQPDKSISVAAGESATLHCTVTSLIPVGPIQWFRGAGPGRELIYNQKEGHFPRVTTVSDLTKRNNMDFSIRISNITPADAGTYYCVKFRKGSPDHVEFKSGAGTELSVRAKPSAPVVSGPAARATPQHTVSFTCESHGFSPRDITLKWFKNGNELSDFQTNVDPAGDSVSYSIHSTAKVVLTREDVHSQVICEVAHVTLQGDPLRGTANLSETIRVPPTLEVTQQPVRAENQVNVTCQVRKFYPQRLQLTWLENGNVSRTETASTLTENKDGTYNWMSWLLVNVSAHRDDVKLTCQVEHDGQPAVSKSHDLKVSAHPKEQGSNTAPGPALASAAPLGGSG
Protocol: as §1, §2

[4] = molecular target: T4, cynomolgus SIRPβ1 extracellular domain + His-tag (XP_005568598) (cynomolgus monkey)
T4 construct: also called Cyno SIRPβ1; cynoSIRPβ1
T4 chain: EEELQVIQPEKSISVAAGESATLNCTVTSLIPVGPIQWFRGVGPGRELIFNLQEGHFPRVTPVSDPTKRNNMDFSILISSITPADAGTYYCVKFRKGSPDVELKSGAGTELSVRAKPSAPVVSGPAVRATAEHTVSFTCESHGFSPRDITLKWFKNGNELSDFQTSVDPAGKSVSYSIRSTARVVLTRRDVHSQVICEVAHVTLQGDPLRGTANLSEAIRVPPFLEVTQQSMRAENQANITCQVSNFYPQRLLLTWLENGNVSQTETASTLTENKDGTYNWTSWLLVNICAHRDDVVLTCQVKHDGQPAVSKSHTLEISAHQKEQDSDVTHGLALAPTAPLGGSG
Protocol: as §1, §2

[5] = molecular target: T5, cynomolgus SIRPβ1v3 extracellular domain + His-tag (XP_005568593) (cynomolgus monkey)
T5 construct: also called Cyno SIRPβ1v3; cynoSIRPβ1v3
T5 chain: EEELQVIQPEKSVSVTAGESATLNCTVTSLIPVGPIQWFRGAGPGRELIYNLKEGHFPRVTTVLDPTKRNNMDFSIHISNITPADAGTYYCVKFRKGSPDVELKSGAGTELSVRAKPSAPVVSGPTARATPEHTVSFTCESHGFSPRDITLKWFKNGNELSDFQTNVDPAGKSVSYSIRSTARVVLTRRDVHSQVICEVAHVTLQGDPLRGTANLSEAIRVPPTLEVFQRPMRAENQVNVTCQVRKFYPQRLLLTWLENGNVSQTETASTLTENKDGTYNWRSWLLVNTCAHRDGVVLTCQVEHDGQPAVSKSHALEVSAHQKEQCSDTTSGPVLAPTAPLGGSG
Protocol: as §1, §2

[6] = molecular target: T6, cynomolgus SIRPα extracellular domain + His-tag (XP_015313155) (cynomolgus monkey)
T6 construct: also called CySIRPα XP_015313155; cynoSIRPα
T6 chain: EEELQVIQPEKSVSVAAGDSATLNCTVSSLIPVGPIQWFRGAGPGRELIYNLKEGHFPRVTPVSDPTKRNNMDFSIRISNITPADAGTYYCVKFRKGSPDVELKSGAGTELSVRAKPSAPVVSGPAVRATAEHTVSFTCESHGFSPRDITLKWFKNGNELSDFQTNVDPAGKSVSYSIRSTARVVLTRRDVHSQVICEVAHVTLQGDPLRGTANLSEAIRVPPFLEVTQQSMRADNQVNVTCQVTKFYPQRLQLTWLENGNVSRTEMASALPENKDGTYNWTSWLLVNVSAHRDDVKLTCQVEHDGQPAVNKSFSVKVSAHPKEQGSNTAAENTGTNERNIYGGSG
Protocol: as §1, §2

[7] = molecular target: T7, cynomolgus SIRPγ extracellular domain + His-tag (XP_005568591) (cynomolgus monkey, UniProt Q9P1W8 29-359 (human entry))
T7 construct: also called Cyno SIRPγ; cynoSIRPγ
T7 chain: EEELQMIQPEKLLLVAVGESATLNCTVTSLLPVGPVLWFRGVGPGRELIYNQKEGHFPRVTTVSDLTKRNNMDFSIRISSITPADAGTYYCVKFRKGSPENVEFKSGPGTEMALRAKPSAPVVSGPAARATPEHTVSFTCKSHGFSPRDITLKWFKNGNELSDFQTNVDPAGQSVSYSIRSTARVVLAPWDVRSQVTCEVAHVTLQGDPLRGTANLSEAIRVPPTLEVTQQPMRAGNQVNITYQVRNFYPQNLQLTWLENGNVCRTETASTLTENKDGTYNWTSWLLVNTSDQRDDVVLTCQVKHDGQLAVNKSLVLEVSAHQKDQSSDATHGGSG
Protocol: as §1, §2

[8] = molecular target: T8, cynomolgus SIRPα extracellular domain + His-tag (EGM_02252) (cynomolgus monkey)
T8 construct: also called CySIRPα EGM_02252; cynoSIRPα
T8 chain: T6 chain with D19E, V27A, S28T, A42V, N51H, L52Q, V227F, T245M
Protocol: as §1, §2

Row | Binder | Kd [1] [nM] | binding result [2] | binding result [3] | binding result [4] | Kd [5] [nM] | Kd [6] [nM] | binding result [7] | Kd [8] [nM]
1 | B1 | 61 | no binding (tested: 1000 nM) | no binding (tested: 100 nM) | no binding (tested: 1000 nM) | 238 | 160 | no binding (tested: 1000 nM) | 226
2 | B2 | 58.3 | no binding (tested: 1000 nM) | no binding (tested: 100 nM) | no binding (tested: 1000 nM) | 235 | 153 | no binding (tested: 1000 nM) | 222
3 | B3 | 58.8 | no binding (tested: 1000 nM) | no binding (tested: 100 nM) | no binding (tested: 1000 nM) | 232 | 154 | no binding (tested: 1000 nM) | 223
4 | B4 | 62.7 | no binding (tested: 1000 nM) | no binding (tested: 100 nM) | no binding (tested: 1000 nM) | 225 | 151 | no binding (tested: 1000 nM) | 225
5 | B5 | 64.2 | no binding (tested: 1000 nM) | no binding (tested: 100 nM) | no binding (tested: 1000 nM) | 465 | 347 | no binding (tested: 1000 nM) | 533
